Results: PMC4167695, “Activation of c-Myc and Cyclin D1 by JCV T-Antigen and β-Catenin in Colon Cancer” (PLoS ONE, 2014)

Target: T1, β-catenin (human (endogenous in HCT116), UniProt P35222 1-781)
T1 sequence (looked up): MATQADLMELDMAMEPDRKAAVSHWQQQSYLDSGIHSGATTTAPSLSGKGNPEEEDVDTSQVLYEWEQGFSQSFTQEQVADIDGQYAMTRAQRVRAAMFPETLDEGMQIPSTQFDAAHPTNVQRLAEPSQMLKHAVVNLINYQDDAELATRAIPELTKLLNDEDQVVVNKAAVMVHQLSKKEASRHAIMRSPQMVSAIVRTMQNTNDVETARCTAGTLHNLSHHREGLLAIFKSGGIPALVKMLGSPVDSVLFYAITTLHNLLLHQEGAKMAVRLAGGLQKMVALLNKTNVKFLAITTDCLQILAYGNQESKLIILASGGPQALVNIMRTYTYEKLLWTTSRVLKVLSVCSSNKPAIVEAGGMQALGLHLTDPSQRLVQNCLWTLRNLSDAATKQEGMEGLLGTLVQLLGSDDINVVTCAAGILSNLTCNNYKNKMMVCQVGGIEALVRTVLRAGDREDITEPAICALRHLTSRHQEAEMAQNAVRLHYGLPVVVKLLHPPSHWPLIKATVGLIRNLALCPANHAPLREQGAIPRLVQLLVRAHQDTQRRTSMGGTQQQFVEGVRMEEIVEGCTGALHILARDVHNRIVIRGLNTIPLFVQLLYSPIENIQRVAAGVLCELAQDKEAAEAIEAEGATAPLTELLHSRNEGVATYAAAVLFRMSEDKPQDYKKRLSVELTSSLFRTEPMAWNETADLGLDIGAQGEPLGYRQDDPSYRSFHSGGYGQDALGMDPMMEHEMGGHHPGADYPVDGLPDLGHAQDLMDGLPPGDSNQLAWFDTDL
Experiment: cell-based or functional assay

B1: JCV T-Antigen (natural protein)
chain: MDKVLNREESMELMDLLGLDRSAWGNIPVMRKAYLKKCKELHPDKGGDEDKMKRMNFLYKKMEQGVKVAHQPDFGTWNSSEVPTYGTDEWESWWNTFNEKWDEDLFCHEEMFASDDENTGSQHSTPPKKKKKVEDPKDFPVDLHAFLSQAVFSNRTVASFAVYTTKEKAQILYKKLMEKYSVTFISRHGFGGHNILFFLTPHRHRVSAINNYCQKLCTFSFLICKGVNKEYLFYSALCRQPYAVVEESIQGGLKEHDFNPEEPEETKQVSWKLVTQYALETKCEDVFLLMGMYLDFQENPQQCKKCEKKDQPNHFNHHEKHYYNAQIFADSKNQKSICQQAVDTVAAKQRVDSIHMTREEMLVERFNFLLDKMDLIFGAHGNAVLEQYMAGVAWIHCLLPQMDTVIYDFLKCIVLNIPKKRYWLFKGPIDSGKTTLAAALLDLCGGKSLNVNMPLERLNFELGVGIDQFMVVFEDVKGTGAESRDLPSGHGISNLDCLRDYLDGSVKVNLERKHQNKRTQVFPPGIVTMNEYSVPRTLQARFVRQIDFRPKAYLRKSLSCSEYLLEKRILQSGMTLLLLLIWFRPVADFAAAIHERIVQWKERLDLEISMYTFSTMKANVGMGRPILDFPREEDSEAEDSGHGSSTESQSQCFSQVSEASGADTQENCTFHICKGFQCFKKPKTPPPK
- Cyclin D1 promoter luciferase activity in HCT116 cells co-transfected with T-Antigen and β-catenin, over empty vector controls: 11.7 fold
- TOPflash (TCF-dependent luciferase reporter) activity in HCT116 cells co-transfected with T-Antigen and exogenous β-catenin, 24 hours post-transfection, normalized to FOPflash: 113 fold
- c-Myc promoter luciferase activity in HCT116 cells co-transfected with T-Antigen and β-catenin, over empty vector controls: 6.1 fold
